Measured values from patent publication US20260241035A1, “FUNCTIONAL NUCLEIC ACID MOLECULE AND METHOD” (THE UNIVERSITY COURT OF THE UNIVERSITY OF EDINBURGH, priority 2022, published 2026).

Test system: GSC7 cells
Assay: Nano-Glo Dual-Luciferase Reporter (Nanoglo DLR) assay of enhancer activity, fold change to mCMV
Type: cell-based, human
Details: expression fold change of the individual enhancer compared to mCMV
How it was run: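 160 bp enhancer fragments in NanoLuc reporter plasmids were co-transfected 1:10 with PGK-firefly luciferase into GSC7 cells using Lipofectamine LTX/Plus and read two days later. NanoLuc signal was normalised to firefly, then expressed as fold change to the empty mCMV vector.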

B1: ID1101: enhancer fragment, SEQ ID NO: 4 (nucleic acid)
DNA: GTGAGTGTGACTCACATGCTGGCATCAGAGCCCCTCTTAGAGCTTAGAACACTGGGCCTCTGTCAGGCAAAGAAAAGGAGTCCCTATGAATAGCCATCTCCACAAATAGCAGTTACTGTCACTTCTTAAAAGACACAAGCATGGCTGGAGACCGGCACTG
Fold change (Median): 258.8 fold
